The record followed here is the DeepSol protein solubility set.

This data set can be described thus: soluble on expression in E. coli; label from the status in PepcDB or PDB records.
With “QRSYERDFPHHDRICIVKTHGTRQSQEGDKPEELDFSQVSGGVAPAIQEEIPGVELATRTTLYGTSKMILEDNKTYETKTLLAEPAFLDMFGVELIAGVRDSALRDNMTCLISESLARKMGGDVLGKRLRPAESKSDRAITIGGVFEDLPHNSSIQADMLLPITWMPAESLNNWIGNDRYIAYVRLRPGVSPESLDEALLEMQKRHQDMEVFRKAGVELHYSLTPFNRLRLEDPTLVNMLRIQQ”, the “soluble on expression in E. coli” value is “soluble”.

With “MFSIFKRKTKQVNPFEQGWLTDLIDIHCHLLPAVDDGSKSIEETLSLIDLLEEIGVKQHILTPHIMEEYPSNDAIFLRARFEELLAAITPDKASRLRLAAEYMLDVAFLDRLAEPLLTLGDR”, the “soluble on expression in E. coli” value is on record as “not soluble”.

Take “MGKLLTMAMPKGRIFEEAAGLLRQAGYRLPEEFEDSRKLIIDVPEENLRFILAKPMDVTTYVEHGVADVGIAGKDVMLEEERDVYEVLDLNISKCHLAVAGLPNTDWSGVAPRIATKYPNVASSYFREQGEQVEIIKLNGSIELAPLIGLADRIVDIVSTGQTLKENGLVETEHICDITSRFIVNPVSYRMKDDVIDEMASRLSLVVEGETAKLEHHHHHH”: the “soluble on expression in E. coli” value is “soluble”.

For the sequence “MLLHLIYGPTCSGKTDMAIQIAQETGWPVVALDRVQCCPQIATGSGRPLESELQSTRRIYLDSRPLTEGILDAESAHRRLIFEVDWRKSEEGLILEGGSISLLNCMAKSPFWRSGFQWHVKRLRLGDSDAFLTRAKQRVAEMFAIREDRPSLLEELAELWNYPAARPILEDIDGYRCAIRFARKHDLAISQLPNIDAGRHVELIEAIANEYLEHALSQERDFPQWPEDGAGQPVCPVTLTRIRGSRSHHHHHH”, the “soluble on expression in E. coli” value is on record as “soluble”.

Turning to “MTEKLAVFTGKLAEAGVLNETQPLSMRLHLENIQAESDPESIVPLFSHGVILNILVEQLEESIPLSHLKKGTKVRFTVVGLPPMTMSIPPHVGGQAIELIEEI”, the “soluble on expression in E. coli” value is recorded as “not soluble”.

For “MGSDKIHHHHHHMAIISEHHIFLSDDANVGLQTRLKDAITRAIWDGRFAPGDRLPATRALARHLGISRITVSLAYDALLSTGYIVSIARSGYFVASDAPTRMEIVTPGKGDARDRLDWAARLGPVPPALGAQATPADWRRFRYPFIFGEPDVARFPVDDWRDCVRRGLGKRHFEQVADDASDRDDPFLVEQIVRRSVSGRGVAATVDEVLVTAGAQNALWLMVQVLFGGQGGEVAMEDPGYPELRNLLRQQRLTIHPVPVDRDGLKVDRIPEGVRAVFVTPSHQAPTGATMSMARRQALLERAEAEDFVVIEDDYDYEMSYASPSLPALKSLDQRGRVIYIGSFSKSIFPGLRLGYLTADARVVEHARAIRTLSERHPPGLTQRTVAYFLSEGHYNSHSRRMRMRMARRNEVLREALAEHGLTPALRRATGGTTLWLLGPEDLDADALAVSLRDKSVLIEAGSAFYAGGDAPRNRVRLGFATIETARIADGVALIAEAIREQAPTPR”, the “soluble on expression in E. coli” value is recorded as “not soluble”.

With “MGSDKIHHHHHHAPSEAQQFTEFWTPGKPNPSICKSPLLVSTPLGLPRCLQASNVVKRLQKLEDIASLNDGNRAAATPGYQASVDYVKQTLQKAGYKVSVQPFPFTAYYPKGPGSLSATVPQPVTYEWEKDFTYLSQTEAGDVTAKVVPVDLSLGAGNTSTSGCEAEDFANFPAGSIALIQRGTCNFEQKAENAAAAGAAGVIIFNQGNTDDRKGLENVTVGESYEGGIPVIFATYDNGVAWSQTPDLQLHLVVDVVRKKTETYNVVAETRRGNPNNVVMVGAHLDSVFEGPGINDNGSGSAAQLEMAVLLAKALPVNKVRFAWWGAEEAGLVGSTHYVQNLAPEEKKKIKAYLNFDMIGSPNFGNFIYDGDGSDFGLQGPPGSAAIERLFEAYFRLRGQQSEGTEIDFRSDYAEFFNSGIAFGGLFTGAEGLKTEEQAQKYGGTAGKAYDECYHSKCDGIANINQDALEIHSDAMAFVTSWLSLSTKVVDDEIAAAGQKAQSRSLQMQKSASQIERWGHDFIK”, the “soluble on expression in E. coli” value is reported as “not soluble”.

In the case of “MITHAQTILCLDLGSKTGWAICGADGHIFSGVMNFQPRRFEGGGMRYLRFKQWLTEMKMTARRIDAVYFEEVRRHVGTDAAHVYGGLLATLTAWCEHHQIPYEGIPVGTIKKETTGKGNASKEEMIKAVCAKGHAPKDDNEADALAILYLMKEGGVYVQ”, the “soluble on expression in E. coli” value was “not soluble”.

For “MSEVTRSLLQRWGASLRRGADFDSWGQLVEAIDEYQILARHLQKEAQAQHNNSEFTEEQKKTIGKIATCLELRSAALQSTQSQEEFKLEDLKKLEPILKNILTYNKEFPFDVQPI”, the “soluble on expression in E. coli” value is listed as “soluble”.

Take “GPGSMLGGRHFQRKYEKKQKKKEAKKASQGPLRGAGGSSGVRAAVAAAAGAAVKRKDGSTLKGPVVSHGDFMASRDSANNRKNVPFSSKMEEKVYRKEHRVPKYNSIVDPERQNLAKAAGASSAAQRRRVLRQKGGDDLLDHFRERLNASTFRLLNEQVYNAPTTLASRLLREEATFRDYHTGYHQQLMQWPINPNKLIVESLLGDRRGRFLANKGKSMPGHIPPSWVVADMGCGEAQIAAALKPKGYTVHSFDFFALNSLVTVADTTKVPLADNHVDVCVFSLSLMATDYVKSLFEAFRVLKPKRLLKIIEVRSRVPFPRKFAELVEDIGFDVDYSDVAGDYFVAFDFIKKDGQAAANTQLRHEPGDVLVPSLYKKR”: the “soluble on expression in E. coli” value is reported as “soluble”.

As to “GPGSMLRVSLACRVTAARSAAPHTTSSSSSLVESVTSVFRSSRYLRHAPPRLYVTCSHDQGIPLHGCGRHMTTVLDVSREASPNAPPHTQSIYLLTSTSISDVEFKDSAAQSQVLVGLPQVQSIDAIHRFCDTYAATLSRVHHILLPGGVSPLQSSLIKQLLEHIPQARLVCNGFGHALLTNATFHDGVQRAVLENEPDAPPELLRFAALPADRVSSMADGDTVAVDVAKSEAESSAPVAARALRVVAVKSKGQQQRRREHSQTHHPAHFTNEALFYYDDVFNALFVGHTLHRLPWLPTVLTEASRELFLPMPPPLATQRPLSRPSPLLDTWRVLESCEDVVEALRRTPELERVLAGSYGELCGNVEDCIAGLESSSDALERLRSRLARRLTTDTSRDVHRWSTALLKRIVHEVVCTQKASEPTSSEVQEAFLCWARTDGEWGRLSTCLAHAAMVLPPSTETGEADGASSSAADSFAAHDSVPAAGATAAGESAAPEALQGTHGVELLVAVFNRKGLQGLIRTVQRETIDVQVFLAMSEEDLKKVFKATFGITKRLMLLQDELRKNL”, the “soluble on expression in E. coli” value was “not soluble”.

For the sequence “MGKALVIVESPAKAKTINKYLGSDYVVKSSVGHIRDLPTSGSAAKKSADSTSTKTAKKPKKDERGALVNRMGVDPWHNWEAHYEVLPGKEKVVSELKQLAEKADHIYLATDLDREGEAIAWHLREVIGGDDARYSRVVFNEITKNAIRQAFNKPGELNIDRVNAQQARRFMDRVVGYMVSPLLWKKIARGLSAGRVQSVAVRLVVEREREIKAFVPEEFWEVDASTTTPSGEALALQVTHQNDKPFRPVNKEQTQAAVSLLEKARYSVLEREDKPTTSKPGAPFITSTLQQAASTRLGFGVKKTMMMAQRLYEAGYITYMRTDSTNLSQDAVNMVRGYISDNFGKKYLPESPNQYASKENSQEAHEAIRPSDVNVMAESLKDMEADAQKLYQLIWRQFVACQMTPAKYDSTTLTVGAGDFRLKARGRILRFDGWTKVMPALRKGDEDRILPAVNKGDALTLVELTPAQHFTKPPARFSEASLVKELEKRGIGRPSTYASIISTIQDRGYVRVENRRFYAEKMGEIVTDRLEENFRELMNYDFTAQMENSLDQVANHEAEWKAVLDHFFSDFTQQLDKAEKDPEEGGMRPNQMVLTSIDCPTCGRKMGIRTASTGVFLGCSGYALPPKERCKTTINLVPENEVLNVLEGEDAETNALRAKRRCPKCGTAMDSYLIDPKRKLHVCGNNPTCDGYEIEEGEFRIKGYDGPIVECEKCGSEMHLKMGRFGKYMACTNEECKNTRKILRNGEVAPPKEDPVPLPELPCEKSDAYFVLRDGAAGVFLAANTFPKSRETRAPLVEELYRFRDRLPEKLRYLADAPQQDPEGNKTMVRFSRKTKQQYVSSEKDGKATGWSAFYVDGKWVEGKK”, the “soluble on expression in E. coli” value was “soluble”.

Turning to “MDRVDCIVIGAGVVGLAVARKLAQAGREVIVLEEAEAIGTITSSRNSEVIHAGIYYRAGSWMARMCVNGKHALYRYCGERGIPHKNCGKLIVATNAKETEKLQSIKAHAEANGVLDMQLLTGEAARALEPALACDAALLSPSTGIIDSHAYMLSLRGEAEEAGAAFAFHTPLIRAKAAAGMIEVEAGGEAPMALQCSLLVNAAGLAATTVARNIDGMPLDRIPPAYLAKGNYFSCNAKAPFSHLIYPVPEPGGLGVHLTLDMAGQARFGPDVEWIETINYEVDPSRAERFYPAIRRYWPTLPDGALMPSYSGIRPKIVPPAVATQDFLMQGPRDHGVAGLINLFGIESPGLTSSLAIADHVAELANILEHHHHHH”, the “soluble on expression in E. coli” value is recorded as “not soluble”.

On to “MEIPSYASNIQPYGSQSGTKIASENDNAKSVSLSGDNSRSVSRTDKLSEHFSEQVRARQQESAETAMAQAKQRQRLNEEQLAKMVEQMNEFVKSINKGLSFRLDRESGREVVTIYEASTGDIIRQIPEEEMLEVLRRLAREQDHRSGLLMAKV”, for which the “soluble on expression in E. coli” value is reported as “not soluble”.

Regarding “MMEKSTLLQIKRDIETCVGQKIQLKANKGRKKAFIREGIVENTYPSIFVVKFENDYDTVRRVSYSYTDILTKAVEITVCEDNRKIQVS”, the “soluble on expression in E. coli” value is “soluble”.

Regarding “MAHHHHHHMLRKTNLFLFAASRALMSGGSSHGPTPYQDKSYPVQPHNLNELQQPPDSWRKSPIMSKLMDQSLPVYDDVVTGVGRLYWQEPARVWHLFEADDTLMLEEHDREEWNDRPYVAVNHLYEPPIGSEERPIRVEGTGNPGDQQIVLCFGNCAPHVPQSNYYMMMKGYSKTKCPMCQQWFYVHNRPWLVMHPDWTDEPAADEGPAYTFAEIEAEFDRDFHEFGVYLNAE”, the “soluble on expression in E. coli” value was “not soluble”.

As for “MGSDKIHHHHHHMLDVVANQDKSIVVKQLRYGRDNEVLVVDEWQLHPAEHWAIFATDSYCGSLLGRILTGDIQPDEGTIAGLPQRIGWVSLGLQQVLLERELEKDELDYGSSVEFLVLECCQDAAQLAPLLQKVGLEPLRLRGFRQLSTGETRRVMLARALAMLPQLLILDDPYAGLDVEHQASLSELLSEVAEHTQLLIITSRQEELPPCISHVALFNGEMLKSGQSVHKLSQPMSIEQWHNHPVMAQLNALSAQRSNELLALMERQRHNAEAFDPLVEIKNGKVEYVSGLIFSGVNWRIEAGQHWQVRGPNGCGKSTLLGLILGDHPQCYSNDITLFGRPRGSGESIWQIKQRIGIVSSALHLQYRVSCSVLDVLLSGFFDSIGLYQKPTKPQLDLAKEWLAILHMTGLASTSFKKLDYGQQRLLLIGRALIKQPLLLILDEPYQGLDFINRTLVMRALKMIAEHHLSQLLYVSHHREDALPAIHHFVDFIKQGDGYSVQVSDSESKD”, the “soluble on expression in E. coli” value was “not soluble”.

For “MGSDKIHHHHHHMHARSLDKKPLDRQASIDSALRTVATEQAGIAALAEALENGLAAPFAQAVDMISKIEGRLIVTGVGKSGHIGSKIAATLASTGTPAFFVHPVEANHGDLGMIAKDDAIIAISWSGESKEMLGIVAYSRRFSIPLIAVTSGETSALARAADVVLLLPRTPEACPHGLAPTTSTLLQLVIGDALAIALLEARGFTPDHFRTFHPGGQLGANLTMVSEIMRVGDQMPLAVLGTKMPEAVMTLSQKKVGCVLIVDANGELAGIITDGDVARNLHRNLADVIVDEVMTRTPKTVDPQTLAGTAIALLNEHNIGALVVTRNNMPLGVVHFHDLLRIGAA”, the “soluble on expression in E. coli” value is given as “not soluble”.

Turning to “MTPDHLLMLVALATFQKGIVPPTPAMELVMQVGACYHALTDAPRMGKLRLFLGKKPMAKLEQFLTEIENETDADF”, the “soluble on expression in E. coli” value is recorded as “not soluble”.
